From US11066655B2, “RNA polymerase, methods of purification and methods of use” (President and Fellows of Harvard College, priority 2013, dated 2021)

Key:
[1] = tested on: plasmid pET24 DNA harboring the Syn5 RNAP gene (pET24-S5RNAP); assay: Filter-binding transcription assay (3H-AMP incorporation); format: biochemical
Procedure: FIGS. 4A-4B depict the effect of temperature and pH on Syn5 RNAP activity. A) Temperature. B) pH. RNA polymerase activity was measured as described in Materials and Methods described herein. The reactions contained 6 mM MgCl2, 200 µM 4 rNTPs (^3H-ATP), 50 nM Syn5 RNAP and 4 nM template (pET24-S5RNAP). The pH was 8.0 for assays in A and the temperature was 24° C. for B. Reactions were terminated and the amount of AMP incorporated was measured at 3, 10, and 30 min. The AMP incorporation was linear in this time range and the data measured at 10 min are presented.
FIGS. 5A-5C depict reaction requirements for Syn5 RNAP. A) Effect of NaCl on Syn5 RNAP activity. B) Effect of KCl on Syn5 and T7 RNAP (dashed line) activity. C) MgCl2 concentration on Syn5 RNAP activity. Reactions contained 200 µM 4 rNTPs (^3H-ATP), 50 nM Syn5 RNAP and 4 nM template (pET24-S5RNAP). For A and B, reactions also contained 6 mM MgCl2. For C, 160 mM KCl was present. Reactions were terminated and the amount of AMP incorporated was measured at 2.5, 5, and 10 min. AMP incorporation was linear in this time range and the data measured at 10 min are presented.
Basic reaction mixtures contained 40 mM Tris-HCl (pH 8.0 unless otherwise specified), 2 mM spermidine, 10 mM DTT, 200 µM[…] GTP, C[…]P, UTP and ^3H-ATP (20 cpm/pmole), 1.5 U/µl RNaseOUT™, 50 nM Syn5 or T7 RNAP and 4 nM plasmid pET24 DNA harboring the Syn5 RNAP gene (pET24-S5RNAP) that contains a single Syn5 promoter in the RNAP gene and a single T7 promoter preceding the gene. Reaction mixtures were incubated at 24° C. unless otherwise specified.
(§1) For the assays described in FIG. 7, reaction mixtures contained 40 mM Tris-HCl (pH 8.0), 6 mM MgCl2, 2 mM spermidine, 10 mM DTT, 20 nM Syn5 or T7 RNAP, 20 nM pET24-S5RNAP DNA, 1 mM ^3H-ATP (20 cpm/pmole), CTP, UTP (or GTP), and varying amounts of GTP (or UTP). 160 mM KCl was added for the Syn5 RNAP reactions. After various times the reactions were stopped by the addition of 20 mM EDTA. 4 µl of the mixtures were then loaded onto Whatman DE81 filter paper disks and the disks were washed to remove the unincorporated ^3H-ATP. The amount of insoluble ^3H-AMP, corresponding to nucleotides incorporated into newly synthesized RNA, was measured using a scintillation counter. The data were analyzed using Prism software.

[2] = tested on: pET24-S5RNAP DNA; assay: Catalytic efficiency at various ribonucleotide concentrations (filter-binding assay); format: biochemical; details: for kcat/KmGTP / Km / kcat: GTP varied; for Km / KmGTP (results obtained with UTP): other NTPs 1 mM; for Km: 24° C., 5 min, read-out: apparent Km for GTP; for Km / kcat: 160 mM KCl for Syn5 RNAP, omitted for T7 RNAP; for kcat/KmGTP (results obtained with UTP) / kcatGTP (results obtained with UTP) / KmGTP (results obtained with UTP): UTP varied; for kcatGTP (results obtained with UTP) / KmGTP (results obtained with UTP): FIG. 7C/7D
Procedure: FIGS. 7A-7D depict a comparison of transcription efficiency of Syn5 and T7 RNAP at various ribonucleotide concentrations. A) Incorporation of NMP by Syn5 RNAP at various GTP concentrations. B) Incorporation of NMP by T7 RNAP at various GTP concentrations. C) Incorporation of NMP by Syn5 RNAP at various UTP concentrations. D) Incorporation of NMP by T7 RNAP at various UTP concentrations. Varied ribonucleotide concentrations were 7.8, 15.6, 31.3, 62.5, 125, 250, 500, 1000 µM while other NTPs were all at 1 mM, RNAP and template were both 20 nM, and the reaction time was 5 min at 24° C. 160 mM KCl was added for Syn5 RNAP reactions.
as §1

[3] = tested on: Syn5 promoter; assay: Cross recognition of promoters, gel transcription assay; format: biochemical, cyanophage Syn5; details: for transcription from a Syn5 promoter: T7 DNA fragment with T7 promoter replaced by Syn5 promoter
Procedure: FIGS. 3A-3C depict characterization of the Syn5 promoter. A) Determination of the 3′-end of Syn5 promoter. 3′-dATP, 3′-dGTP, 3′-dUTP replaced ATP, GTP and UTP, respectively, as chain terminator to sequence the 5′-end of Syn5 RNAP transcript on a template same as template 1 in FIG. 2B. Once the 5′-terminus of the transcript was determined, the sequence preceding it should be the promoter and the 3′-end of the promoter can thus be defined. A 25% TBE-urea gel was used for this assay. B) Cross recognition between Syn5 and T7 transcription systems. Syn5 RNAP synthesizes runoff products on a fragment of T7 DNA provided the T7 promoter is replaced by a Syn5 promoter (lane a). Syn5 RNAP fails to produce transcripts if the first nucleotide downstream of the promoter is changed from G to T (lane b). […] T7 RNAP produces runoff and “N+1” products upon its own promoter (lane e). Sequences of templates can be found in Table 1. C) Schematic showing the identity of the two promoters based on the above data and previous bioinformatics analysis on the Syn5 and P-SSP7 genomes, respectively. Syn5 RNAP transcribes DNA fragments containing a Syn5 promoter to produce transcripts (>1500 for template 1, lane 1; and >200 nt for template 3, lane 3).
For the gel assay results shown in FIGS. 1, 2, 3, and 13, reaction mixtures (20 μl) contained 40 mM Tris-HCl (pH 7.9), 6 mM MgCl2, 2 mM spermidine, 10 mM DTT, 200 µM[…]P, GTP and UTP, 10 µM [[…]-^32P]CTP, 1.5 U/µl RNaseOUT™ recombinant ribonuclease inhibitor (Invitrogen), 100 nM Syn5 or T7 RNAP, and DNA templates as described in the figure legends (either 2 nM phage genomic DNA, 4 nM purified PCR products, or 1 µM synthetic dsDNA fragments). Reaction mixtures were incubated at 24° C. for 30 min. The reaction mixtures described in FIG. 6 contained 40 mM Tris-HCl (pH 8.0), 200 µM[…]P, GTP and UTP, 10 µM [[…]-^32P]CTP, 1.5 U/µl RNaseOUT™, 50 nM Syn5 RNAP, DNA templates, and various amounts of MgCl2, FeCl2, MnCl2 and KCl as described in the figure legends. […] After electrophoresis, gels were dried and analyzed using a Fuji BAS 1000 Bioimaging Analyzer.

T7 RNAP: RNA polymerase encoded by bacteriophage T7, from New England Biolabs [reference compound]
sensitivity to ionic strength ([1]; KCl titration, FIG. 5B): highly sensitive to the ionic strength of the reaction
kcat/KmGTP [2]: 90000 M⁻¹ s⁻¹
Km [2]: 45.8 ± 9 µM
kcat [2]: 4.1 s⁻¹
kcat/KmGTP (results obtained with UTP) [2]: 290000 M⁻¹ s⁻¹
kcatGTP (results obtained with UTP) [2]: 6.8 s⁻¹
KmGTP (results obtained with UTP) [2]: 23.3 ± 5.5 µM
transcription from a Syn5 promoter [3]: does not initiate transcription but does catalyze some non-specific RNA synthesis

B1: Syn5 RNAP: single subunit DNA-dependent RNA polymerase from marine cyanophage Syn5, amino acid sequence SEQ ID NO:23 (protein)
chain: MSFDLIARQLQRETEAAELARKRLQDARREANERSYASSNIESRKAIATFLDPIAQRIGERLFTLRRGTGAVDAAEVYKHLKNADHHHLALITMKTALDVLGKDPEPQIQQLTTAIGRNIQLELRLTYYAEENPELYKQASRFFHAGTGTRQKATVIKLKFNREGIEWDQWSRVTCHKVGQWLMLAMADVTGWIERATDRTSGGRKTKTRICYSREFLQHRDTILAAAEQLAFCQWPMLCPPIEWSNDHNGGYLSEQIRRVNPLIRKTGPLGTRKQGDIPLAMLNNLQGQAYKVNPEVLDIANHCYESNVTVGKFIRHAPLPVPPSPGEDCTEDQLTAYKRARREAEDFNAQISQKNWRTTEVMYVARKYADEASFWMPASFDYRGRVYFLNTALNPQGTDFDKALLYFAEEGPVNEWWLSFHVATTYGLDKETMVNRVQWARDNHELIDRIASDPVRHTEWHDADEPWCFLAACLEYKACVIDGTKQTSGLPIGIDATCSGLQHLAAMTRCGRTAALVNVTPTDKPADAYKTVAQASLKHLPKEQHEWITRKVTKRPVMCTPYGVTMSSARGYIRDQLVKDGHKEDLRSPGVLNGIVKAIFNEAIPEVIPGPVQVMAWLKRSAGQIIDRGDSTITWTTPSGFEVVQDLKKSKTYEVKTRIMGGARIKLQVGDGFTDEPDRDHHKSALAPNVVHSNDASLLHLTFAFWDKPFTVIHDCVLGRSCDMDQMGSDIRLHFAEMYKADVMQDWADQVGVELPVDLIKNTLDIDSVNQSLYFFS
modifications: Amino acid sequence of a cyanophage Syn5 RNAP
potassium required for maximal activity [1]: 160 mM
metal ions in place of Mg2+ as cofactor ([1]; 10 mM Ca2+, Co2+, Cu2+ or Ni2+): cannot replace Mg^2+
metal ions in place of Mg2+ as cofactor ([1]; 10 mM Zn2+ or Mn2+): A small amount of activity
increase of activity by NaCl ([1]; 80 mM NaCl, 6 mM MgCl2): two-fold
stimulation of activity by KCl ([1]; 160 mM KCl, 6 mM MgCl2): three-fold
activity remaining ([1]; 300 mM KCl): 10%
pH of highest activity ([1]; 24° C.): 8.0
% of maximum activity ([1]; at 0° C.): 15%
% of maximum activity ([1]; at 37° C.): 8%
% of maximum activity ([1]; at 42° C.): 2%
Km ([1]; in the presence of 160 mM KCl, read-out: Km for MgCl2 as cofactor): ~2500 µM
optimum temperature ([1]; pH 8.0, 6 mM MgCl2, 50 nM RNAP, 4 nM template): 24 °C
kcat/KmGTP [2]: 180000 M⁻¹ s⁻¹
Km [2]: 13.9 ± 5.6 µM
kcat [2]: 2.5 s⁻¹
kcat/KmGTP (results obtained with UTP) [2]: 380000 M⁻¹ s⁻¹
kcatGTP (results obtained with UTP) [2]: 2.8 s⁻¹
KmGTP (results obtained with UTP) [2]: 7.4 ± 1.5 µM
first nucleotide after promoter changed from G to T ([3]; FIG. 3B lane b): unable to incorporate UTP as the first ribonucleotide
transcription from a Syn5 promoter [3]: produce a run-off product of the expected size
